# Measured values from the supplement of paper PMC10567573.
# B1: CDC34 (parent)
# chain: GGYFKARLKFPIDYPYSPPAFRFL
# Variants of: B1
# Experiment: protein stability index of a GFP-peptide fusion (GPS, HEK-293T) (PSI 1-6); higher = more stable
# Details: c terminus: a fixed tail appended
# 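Also: lentivirally expressed fusions sorted by FACS into six bins by GFP to DsRed ratio, PSI derived from sequencing read proportions per bin multiplied by bin number.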
row,Variant,protein stability index
1,GGYFNARLKFPIDYPYSPPAFRFL,2.89
2,GGYFRARLKFPIDYPYSPPAFRFL,2.71
3,GGYFFARLKFPIDYPYSPPAFRFL,3.5
4,GGYFCARLKFPIDYPYSPPAFRFL,2.85
5,GGYFAARLKFPIDYPYSPPAFRFL,2.24
6,GGYFIARLKFPIDYPYSPPAFRFL,2.76
7,GGYFHARLKFPIDYPYSPPAFRFL,2.61
8,GGYFVARLKFPIDYPYSPPAFRFL,3.61
9,GGYFTARLKFPIDYPYSPPAFRFL,2.69
10,GGYFDARLKFPIDYPYSPPAFRFL,2.63
11,GGYFEARLKFPIDYPYSPPAFRFL,2.79
12,GGYFMARLKFPIDYPYSPPAFRFL,3.16
13,GGYFQARLKFPIDYPYSPPAFRFL,3.03
14,GGYFPARLKFPIDYPYSPPAFRFL,1.98
15,GGYFSARLKFPIDYPYSPPAFRFL,3.33
16,GGYHKARLKFPIDYPYSPPAFRFL,1.96
17,GGYAKARLKFPIDYPYSPPAFRFL,2.97
18,GGYTKARLKFPIDYPYSPPAFRFL,1.94
19,GGYYKARLKFPIDYPYSPPAFRFL,2.38
20,GGYMKARLKFPIDYPYSPPAFRFL,2.51
21,GGYSKARLKFPIDYPYSPPAFRFL,3.07
22,GGYVKARLKFPIDYPYSPPAFRFL,3.17
23,GGYNKARLKFPIDYPYSPPAFRFL,2.72
24,GGYRKARLKFPIDYPYSPPAFRFL,2.76

row,Variant,protein stability index
1,GGYPKARLKFPIDYPYSPPAFRFL,1.54
2,GGYLKARLKFPIDYPYSPPAFRFL,3.57
3,GGYQKARLKFPIDYPYSPPAFRFL,1.75
4,GGYEKARLKFPIDYPYSPPAFRFL,2.79
5,GGYWKARLKFPIDYPYSPPAFRFL,1.73
6,GGYCKARLKFPIDYPYSPPAFRFL,3.82
7,GGYDKARLKFPIDYPYSPPAFRFL,2
8,GGYKKARLKFPIDYPYSPPAFRFL,3.11
9,GGYFKAKLKFPIDYPYSPPAFRFL,3.83
10,GGYFKAQLKFPIDYPYSPPAFRFL,1.72
11,GGYFKAALKFPIDYPYSPPAFRFL,1.8
12,GGYFKAILKFPIDYPYSPPAFRFL,2.78
13,GGYFKAHLKFPIDYPYSPPAFRFL,3.7
14,GGYFKACLKFPIDYPYSPPAFRFL,2.9
15,GGYFKADLKFPIDYPYSPPAFRFL,1.96
16,GGYFKAVLKFPIDYPYSPPAFRFL,3.25
17,GGYFKASLKFPIDYPYSPPAFRFL,2.3
18,GGYFKANLKFPIDYPYSPPAFRFL,2.57
19,GGYFKAGLKFPIDYPYSPPAFRFL,2.45
20,GGYFKALLKFPIDYPYSPPAFRFL,2.38
21,GGYFKAWLKFPIDYPYSPPAFRFL,3.18
22,GGYFKAMLKFPIDYPYSPPAFRFL,2.51
23,GGYFKAELKFPIDYPYSPPAFRFL,2.77
24,GGYFKARLKQPIDYPYSPPAFRFL,1.76

row,Variant,protein stability index
1,GGYFKARLKCPIDYPYSPPAFRFL,2.89
2,GGYFKARLKHPIDYPYSPPAFRFL,3.49
3,GGYFKARLKDPIDYPYSPPAFRFL,3.29
4,GGYFKARLKYPIDYPYSPPAFRFL,2.87
5,GGYFKARLKSPIDYPYSPPAFRFL,3.88
6,GGYFKARLKVPIDYPYSPPAFRFL,2.97
7,GGYFKARLKWPIDYPYSPPAFRFL,3.49
8,GGYFKARLKIPIDYPYSPPAFRFL,2.44
9,GGYFKARLKGPIDYPYSPPAFRFL,2.75
10,GGYFKARLKEPIDYPYSPPAFRFL,2.66
11,GGYFKARLKRPIDYPYSPPAFRFL,2.94
12,GGYFKARLKNPIDYPYSPPAFRFL,3.08
13,GGYFKARLKMPIDYPYSPPAFRFL,2.53
14,GGYFKPRLKFPIDYPYSPPAFRFL,2.13
15,GGYFKHRLKFPIDYPYSPPAFRFL,3.08
16,GGYFKMRLKFPIDYPYSPPAFRFL,3.74
17,GGYFKWRLKFPIDYPYSPPAFRFL,3.16
18,GGYFKYRLKFPIDYPYSPPAFRFL,3.56
19,GGYFKVRLKFPIDYPYSPPAFRFL,2.15
20,GGYFKERLKFPIDYPYSPPAFRFL,2.33
21,GGYFKDRLKFPIDYPYSPPAFRFL,2.1
22,GGYFKIRLKFPIDYPYSPPAFRFL,1.94
23,GGYFKFRLKFPIDYPYSPPAFRFL,3.63
24,GGYFKQRLKFPIDYPYSPPAFRFL,1.71

row,Variant,protein stability index
1,GGYFKNRLKFPIDYPYSPPAFRFL,3.51
2,GGYFKLRLKFPIDYPYSPPAFRFL,2.36
3,GGYFKKRLKFPIDYPYSPPAFRFL,3.08
4,GGYFKRRLKFPIDYPYSPPAFRFL,3.77
5,GGYFKSRLKFPIDYPYSPPAFRFL,2.47
6,GGYFKGRLKFPIDYPYSPPAFRFL,3.12
7,GGYFKTRLKFPIDYPYSPPAFRFL,2.76
8,GGYFKARQKFPIDYPYSPPAFRFL,2.35
9,GGYFKARMKFPIDYPYSPPAFRFL,3.8
10,GGYFKARHKFPIDYPYSPPAFRFL,2.54
11,GGYFKARCKFPIDYPYSPPAFRFL,2.65
12,GGYFKAREKFPIDYPYSPPAFRFL,2.3
13,GGYFKARPKFPIDYPYSPPAFRFL,2.19
14,GGYFKARKKFPIDYPYSPPAFRFL,2.48
15,GGYFKARYKFPIDYPYSPPAFRFL,1.53
16,GGYFKARIKFPIDYPYSPPAFRFL,3.42
17,GGYFKARVKFPIDYPYSPPAFRFL,2.53
18,GGYFKARGKFPIDYPYSPPAFRFL,3.75
19,GGYFKARFKFPIDYPYSPPAFRFL,3.29
20,GGYFKARDKFPIDYPYSPPAFRFL,2.24
21,GGYFKARAKFPIDYPYSPPAFRFL,2.66
22,GGYFKARSKFPIDYPYSPPAFRFL,2.89
23,GGYFKARWKFPIDYPYSPPAFRFL,2.65
24,GGYFKARRKFPIDYPYSPPAFRFL,1.25

row,Variant,protein stability index
1,CGYFKARLKFPIDYPYSPPAFRFL,2.8
2,KGYFKARLKFPIDYPYSPPAFRFL,2.88
3,PGYFKARLKFPIDYPYSPPAFRFL,2.61
4,SGYFKARLKFPIDYPYSPPAFRFL,3.14
5,NGYFKARLKFPIDYPYSPPAFRFL,3.03
6,WGYFKARLKFPIDYPYSPPAFRFL,2.88
7,MGYFKARLKFPIDYPYSPPAFRFL,3.53
8,YGYFKARLKFPIDYPYSPPAFRFL,2.68
9,DGYFKARLKFPIDYPYSPPAFRFL,1.94
10,FGYFKARLKFPIDYPYSPPAFRFL,2.55
11,TGYFKARLKFPIDYPYSPPAFRFL,3.19
12,VGYFKARLKFPIDYPYSPPAFRFL,2.45
13,HGYFKARLKFPIDYPYSPPAFRFL,2.91
14,RGYFKARLKFPIDYPYSPPAFRFL,2.45
15,AGYFKARLKFPIDYPYSPPAFRFL,2.86
16,QGYFKARLKFPIDYPYSPPAFRFL,2.39
17,EGYFKARLKFPIDYPYSPPAFRFL,1.58
18,IGYFKARLKFPIDYPYSPPAFRFL,3.18
19,GGYFKARLKFPKDYPYSPPAFRFL,2.61
20,GGYFKARLKFPGDYPYSPPAFRFL,3.83
21,GGYFKARLKFPEDYPYSPPAFRFL,2.83
22,GGYFKARLKFPFDYPYSPPAFRFL,3.1
23,GGYFKARLKFPLDYPYSPPAFRFL,2.49
24,GGYFKARLKFPCDYPYSPPAFRFL,2.64

row,Variant,protein stability index
1,GTYFKARLKFPIDYPYSPPAFRFL,3.26
2,GCYFKARLKFPIDYPYSPPAFRFL,2.22
3,GHYFKARLKFPIDYPYSPPAFRFL,3.54
4,GWYFKARLKFPIDYPYSPPAFRFL,2.23
5,GMYFKARLKFPIDYPYSPPAFRFL,2.92
6,GVYFKARLKFPIDYPYSPPAFRFL,3.03
7,GNYFKARLKFPIDYPYSPPAFRFL,2.68
8,GIYFKARLKFPIDYPYSPPAFRFL,3.05
9,GKYFKARLKFPIDYPYSPPAFRFL,1.9
10,GAYFKARLKFPIDYPYSPPAFRFL,3.13
11,GPYFKARLKFPIDYPYSPPAFRFL,3.31
12,GEYFKARLKFPIDYPYSPPAFRFL,1.94
13,GDYFKARLKFPIDYPYSPPAFRFL,2.29
14,GQYFKARLKFPIDYPYSPPAFRFL,2.77
15,GSYFKARLKFPIDYPYSPPAFRFL,2.18
16,GYYFKARLKFPIDYPYSPPAFRFL,3
17,GLYFKARLKFPIDYPYSPPAFRFL,2.2
18,GFYFKARLKFPIDYPYSPPAFRFL,2.03
19,GGLFKARLKFPIDYPYSPPAFRFL,2.32
20,GGQFKARLKFPIDYPYSPPAFRFL,3.35
21,GGAFKARLKFPIDYPYSPPAFRFL,2.68
22,GGVFKARLKFPIDYPYSPPAFRFL,2.61
23,GGNFKARLKFPIDYPYSPPAFRFL,2.44
24,GGRFKARLKFPIDYPYSPPAFRFL,3.15

row,Variant,protein stability index
1,GGHFKARLKFPIDYPYSPPAFRFL,3.02
2,GGGFKARLKFPIDYPYSPPAFRFL,1.63
3,GGFFKARLKFPIDYPYSPPAFRFL,1.77
4,GGKFKARLKFPIDYPYSPPAFRFL,3.54
5,GGPFKARLKFPIDYPYSPPAFRFL,3.03
6,GGTFKARLKFPIDYPYSPPAFRFL,2.39
7,GGIFKARLKFPIDYPYSPPAFRFL,2.63
8,GGMFKARLKFPIDYPYSPPAFRFL,2.46
9,GGCFKARLKFPIDYPYSPPAFRFL,3.72
10,GGWFKARLKFPIDYPYSPPAFRFL,2.33
11,GGSFKARLKFPIDYPYSPPAFRFL,1.54
12,GGEFKARLKFPIDYPYSPPAFRFL,1.29
13,GGYFKARLDFPIDYPYSPPAFRFL,2.43
14,GGYFKARLRFPIDYPYSPPAFRFL,3.6
15,GGYFKARLWFPIDYPYSPPAFRFL,2.66
16,GGYFKARLHFPIDYPYSPPAFRFL,3.05
17,GGYFKARLYFPIDYPYSPPAFRFL,3.41
18,GGYFKARLEFPIDYPYSPPAFRFL,3.56
19,GGYFKARLSFPIDYPYSPPAFRFL,3.19
20,GGYFKARLLFPIDYPYSPPAFRFL,3.67
21,GGYFKARLTFPIDYPYSPPAFRFL,2.11
22,GGYFKARLIFPIDYPYSPPAFRFL,3.15
23,GGYFKARLQFPIDYPYSPPAFRFL,2.55
24,GGYFKARLNFPIDYPYSPPAFRFL,2.39

row,Variant,protein stability index
1,GGYFKARLGFPIDYPYSPPAFRFL,2.29
2,GGYFKARLAFPIDYPYSPPAFRFL,2.74
3,GGYFKARLPFPIDYPYSPPAFRFL,2.57
4,GGYFKARLMFPIDYPYSPPAFRFL,1.82
5,GGYFKARLFFPIDYPYSPPAFRFL,3.11
6,GGYFKARLKFSIDYPYSPPAFRFL,3.37
7,GGYFKARLKFAIDYPYSPPAFRFL,2.77
8,GGYFKARLKFRIDYPYSPPAFRFL,2.99
9,GGYFKARLKFIIDYPYSPPAFRFL,2.84
10,GGYFKARLKFCIDYPYSPPAFRFL,3.95
11,GGYFKARLKFYIDYPYSPPAFRFL,3.2
12,GGYFKARLKFMIDYPYSPPAFRFL,3.98
13,GGYFKARLKFGIDYPYSPPAFRFL,2.07
14,GGYFKARLKFNIDYPYSPPAFRFL,3.45
15,GGYFKARLKFKIDYPYSPPAFRFL,2.13
16,GGYFKARLKFDIDYPYSPPAFRFL,2.06
17,GGYFKARLKFEIDYPYSPPAFRFL,2.75
18,GGYFKARLKFWIDYPYSPPAFRFL,2.87
19,GGYFKARLKFLIDYPYSPPAFRFL,4.07
20,GGYFKARLKFTIDYPYSPPAFRFL,2.28
